Patent US20140302123A1

Biological target: PTPN4 as expressed in U373MG cells (human) (UniProt P29074)
Assay: cell-based or functional assay

Chain of PTPN4 as expressed in U373MG cells (human) (P29074 whole entry): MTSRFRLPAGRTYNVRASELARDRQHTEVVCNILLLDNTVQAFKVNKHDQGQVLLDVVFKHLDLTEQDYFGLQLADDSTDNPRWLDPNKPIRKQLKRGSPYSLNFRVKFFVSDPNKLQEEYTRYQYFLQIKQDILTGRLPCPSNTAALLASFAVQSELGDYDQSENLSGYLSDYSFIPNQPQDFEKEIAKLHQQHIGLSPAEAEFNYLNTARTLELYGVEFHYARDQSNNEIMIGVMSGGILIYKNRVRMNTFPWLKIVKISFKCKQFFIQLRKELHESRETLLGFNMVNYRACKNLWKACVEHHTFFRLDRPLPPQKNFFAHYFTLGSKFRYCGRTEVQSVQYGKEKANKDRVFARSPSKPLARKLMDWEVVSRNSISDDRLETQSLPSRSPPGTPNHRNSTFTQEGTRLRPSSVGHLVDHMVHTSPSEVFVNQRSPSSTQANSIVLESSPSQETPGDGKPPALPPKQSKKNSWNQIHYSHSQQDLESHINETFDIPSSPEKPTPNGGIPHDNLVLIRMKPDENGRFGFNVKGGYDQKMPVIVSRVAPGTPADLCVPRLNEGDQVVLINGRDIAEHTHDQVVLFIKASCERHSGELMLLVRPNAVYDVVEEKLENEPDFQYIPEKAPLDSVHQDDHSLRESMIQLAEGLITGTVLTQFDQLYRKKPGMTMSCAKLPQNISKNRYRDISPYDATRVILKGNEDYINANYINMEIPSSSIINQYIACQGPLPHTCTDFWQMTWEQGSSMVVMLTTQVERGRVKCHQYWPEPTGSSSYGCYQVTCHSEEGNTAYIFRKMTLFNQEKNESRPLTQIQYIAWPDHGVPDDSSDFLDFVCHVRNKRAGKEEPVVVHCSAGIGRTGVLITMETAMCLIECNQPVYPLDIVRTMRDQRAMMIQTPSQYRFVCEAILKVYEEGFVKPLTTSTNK

Question: Which cell death (% of dead cells among peptide loaded cells), U373MG, 3 h, 25 microM, propidium iodide does the source give for “Tat-conjugated, FITC-labelled GluN2A-16 (peptide)” here?
Answer: 29%
